In paper PMC12019173, “Liganded magnetic nanoparticles for magnetic resonance imaging of α-synuclein” (NPJ Parkinson's Disease, 2025):
No end group written: not given here.

B1: R8-liganded magnetic nanoparticles (other)
peptide: RVGGARVWGVRKKGRKKRRQRRRPQ
modifications: also: covalently coupled to amine-functionalized dextran-coated iron oxide nanoparticle
notes: two-lysine linker; cell penetrating peptide; Multiple R8 ligands on each nanoparticle (multivalent, avidity); also called R8-LMNPs; R8-LMNP
B2: 24mer-liganded magnetic nanoparticles (other)
peptide: GAVVWGVTAVKKGRKKRRQRRRPQ
modifications: also: covalently coupled to amine-functionalized dextran-coated iron oxide nanoparticle
notes: two lysine linker; cell penetrating peptide; Multivalent; also called 24mer-LMNPs
B3: R8 (designed binder)
peptide: RVGGARVWGVRKKGRKKRRQRRRPQ
notes: two-lysine linker; cell penetrating peptide (the methods call it the Tat peptide; detected with an anti-HIV-1 tat antibody); 25 residues; also called R8 peptide; source: synthetic peptide (Genscript or LifeTein)
B4: 24mer (designed binder)
peptide: GAVVWGVTAVKKGRKKRRQRRRPQ
notes: two lysine linker; cell penetrating peptide; 24 residues; also called 24-residue peptide

How the values were obtained:
Conditions in all cases: both partners purified
[1] = target: DLB brain-derived α-synuclein fibrils (human (endogenous in brain tissue), UniProt P37840 1-140); assay: negative-stain transmission electron microscopy; brain-derived (sarkosyl-insoluble) fibrils mixed with R8-LMNPs (3 μg/mL), 4 °C overnight, 2% uranyl acetate
[2] = target: MSA brain-derived α-synuclein fibrils (human (endogenous in brain tissue), UniProt P37840 1-140); assay: as above
[3] = target: T1, recombinant α-synuclein fibrils (human, UniProt P37840 1-140); assay: SPR; α-syn fibrils on the SPR chip, LMNPs flowed over; LMNPs would not dissociate, no Kd calculated
[4] = target: T1, recombinant α-synuclein fibrils; assay: SPR; short, sonicated α-syn fibrils immobilised on a CM5 chip, BiaCore T200; peptides 300 nM to 10 μM in PBS; steady state analysis, 1:1 binding model; apparent Kd

Row | Binder | binding result [1] | binding result [2] | binding result [3] | Kd [4] [nM]
1 | B1 | binds | binds | binds | 
2 | B2 |  |  | binds | 
3 | B3 |  |  |  | 470
4 | B4 |  |  |  | 3700
